Source: publication PMC11041648
Like-named read-outs stand apart in the source and are kept apart here.

What was measured:
[1] = biological target: PGT145 IgG (human); test: BLI; Octet Red; PGT145 IgG (8 µg/mL) loaded on anti-human IgG Fc capture biosensors; twofold dilution series of SOSIP trimer as analyte; 3 min association, 3 min dissociation; PBS pH 7.4, 0.1% BSA, 0.005% Tween 20, 0.02% NaN3; 1:1 binding model; averages of at least two independent experiments
[2] = biological target: PGT145 IgG (human); test: as above; remark: listed apart in the source

Sequence of PGT145 IgG (human) (heavy, as listed by the source, chain 1 of 2): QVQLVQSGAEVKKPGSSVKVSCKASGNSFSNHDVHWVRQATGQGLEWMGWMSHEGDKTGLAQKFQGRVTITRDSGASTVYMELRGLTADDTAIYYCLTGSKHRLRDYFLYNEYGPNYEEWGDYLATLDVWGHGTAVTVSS
Sequence of PGT145 IgG (human) (light, as listed by the source, chain 2 of 2): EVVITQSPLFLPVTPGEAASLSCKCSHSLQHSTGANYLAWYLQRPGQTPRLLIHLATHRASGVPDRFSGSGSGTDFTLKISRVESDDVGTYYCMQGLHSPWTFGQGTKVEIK

Row | Substance | Kd [1] | koff [1] | kon [1] | Kd [2] | koff [2] | kon [2]
1 | CNE8 SOSIP.664 Env trimer (complex) | 50.8 nM | 0.00419 s⁻¹ | 83400 M⁻¹ s⁻¹ |  |  | 
2 | BG505 SOSIP.664 Env trimer (complex) | 16 nM | 0.00177 s⁻¹ | 120000 M⁻¹ s⁻¹ | 15.6 nM | 0.00185 s⁻¹ | 129000 M⁻¹ s⁻¹
3 | BJOX2000 SOSIP.664 Env trimer (complex) | 27.7 nM | 0.00152 s⁻¹ | 66700 M⁻¹ s⁻¹ |  |  | 
